From article PMC9941469

Target: phosphorylated Smad5 (pSmad5), mouse (UniProt P97454)
Experiment: Co-Immunoprecipitation
Settings: parent: est. 100; read off a plot

Chain of UniProt P97454 (P97454 whole entry): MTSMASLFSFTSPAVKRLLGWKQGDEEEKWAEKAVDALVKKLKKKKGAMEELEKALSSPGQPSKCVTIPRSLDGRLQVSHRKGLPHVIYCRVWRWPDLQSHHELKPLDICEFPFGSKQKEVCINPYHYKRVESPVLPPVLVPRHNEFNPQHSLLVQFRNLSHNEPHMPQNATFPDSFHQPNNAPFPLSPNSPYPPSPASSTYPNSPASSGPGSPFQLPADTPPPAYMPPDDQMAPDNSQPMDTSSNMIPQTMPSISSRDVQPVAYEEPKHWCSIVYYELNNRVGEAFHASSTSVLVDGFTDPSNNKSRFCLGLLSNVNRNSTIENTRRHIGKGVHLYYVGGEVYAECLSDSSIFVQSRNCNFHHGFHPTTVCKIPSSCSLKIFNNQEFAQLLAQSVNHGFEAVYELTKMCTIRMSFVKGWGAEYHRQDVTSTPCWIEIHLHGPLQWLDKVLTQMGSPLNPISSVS

percent of parent: 70 % of WT
Substance: Hoxd13 (homeobox D13), wild type, mouse (from UniProt P70217) R306L
